Biological target: T1, RHAU23-Bst (DHX36 RHAU23 peptide fused to N-terminus of Bst-LF) (Homo sapiens / Geobacillus …)
T1 chain: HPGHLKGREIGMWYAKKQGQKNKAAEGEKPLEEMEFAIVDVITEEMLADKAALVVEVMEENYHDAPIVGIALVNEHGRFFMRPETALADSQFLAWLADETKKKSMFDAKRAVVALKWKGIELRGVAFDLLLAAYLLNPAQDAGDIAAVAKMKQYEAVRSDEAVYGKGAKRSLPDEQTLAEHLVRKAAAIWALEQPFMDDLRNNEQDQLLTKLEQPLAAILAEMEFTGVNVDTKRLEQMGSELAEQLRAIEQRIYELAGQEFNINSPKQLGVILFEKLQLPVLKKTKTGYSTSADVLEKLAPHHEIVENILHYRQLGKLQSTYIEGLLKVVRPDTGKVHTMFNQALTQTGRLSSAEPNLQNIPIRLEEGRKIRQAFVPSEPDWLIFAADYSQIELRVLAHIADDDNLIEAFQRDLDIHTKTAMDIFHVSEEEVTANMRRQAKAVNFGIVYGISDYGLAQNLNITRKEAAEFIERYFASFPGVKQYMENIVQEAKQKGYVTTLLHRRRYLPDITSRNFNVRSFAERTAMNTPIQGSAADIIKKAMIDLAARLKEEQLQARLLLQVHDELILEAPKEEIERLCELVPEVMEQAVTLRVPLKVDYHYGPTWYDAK
Assay: EMSA; Kd stated only as nM level; K+ buffer, 4 C
Conditions: tags: His-tag, pCold-I, E. coli BL21; label: 5'-FAM (EMSA); bulged G4 with flanking dsDNA
Protocol: Oligonucleotides were purchased from Sangon Biotech Co., Ltd (China). Double-stranded DNAs (dsDNA) were paired from the complementary single-stranded DNA (ssDNA) by denaturing at 95° C. for 5 min and subsequently cooling to 25° C. in a buffer containing 10 mM Tris-HCl (pH 7.4), 75 mM KCl and 0.5 mM EDTA. 20 nM 5′-FAM-labeled aptamer DNA (Table 1) was dissolved in a first buffer, denatured at 95° C. for 5 min and subsequently cooled to 25° C. at a rate of 0.1° C./s; the first buffer contained 10 mM Tris-HCl (pH 7.4), 75 mM KCl, 0.5 mM EDTA, and 0.2 mg/ml BSA. Then each aptamer DNA and the specified concentration of DNA polymerase fused to G-quadruplex binding peptide were added into a second buffer, to bind at 4° C. for 1 hour, to form a DNA-protein complex; the second buffer contained 20 mM Tris-HCl (pH 8.8), 10 mM (NH₄)₂SO₄, 50 mM KCl, 2-8 mM MgSO₄, and 0.1% Tween-20.
The binding of aptamer to DNA polymerase was detected by electrophoretic mobility shift assay. Specifically, DNA-protein complex was electrophoresed on 8% or 12% non-denatured polyacrylamide gel containing 75 mM KCl at 4° C. for 2 h in 1×TBE buffer containing 75 mM KCl. The DNA-protein complex was photographed by the ChemiDoc MP imaging system (Bio-Rad) and digitized by the Image Quant 5.2 software.

Binder | binding result
PDGFRB-Fd-G4 (structured_DNA) DNA 1: CCTGAAGCAGACAGCTAGTGAATTCGGGAGGGCGGCGGGGCAGGGTACTTGCGTATAACTGTTCCATAGT DNA 2: ACTATGGAACAGTTATACGCAAGTATTTTTTTTTTTTTTTTTTTTTGAATTCACTAGCTGTCTGCTTCAGG | binds
T4B1-Fd-G4 (structured_DNA) DNA 1: CCTGAAGCAGACAGCTAGTGAATTCGTTTTGGTGGGTGGGTGGGTACTTGCGTATAACTGTTCCATAGT DNA 2: ACTATGGAACAGTTATACGCAAGTATTTTTTTTTTTTTTTTTTTTTGAATTCACTAGCTGTCTGCTTCAGG | binds
